Results taken from patent US10294520B2, “Nicotiana nucleic acid molecules and uses thereof” (U.S. Smokeless Tobacco Company LLC, priority 2004, dated 2019).

B1: D208-AD9: test p450 from a full-length tobacco clone, expressed in yeast (protein, listed as Nicotiana tabacum)
chain: MLSPIEAIVGLVTFTFLFFFLWTKKSQKPSKPLPPKIPGGWPVIGHLFHFNDDGDDRPLARKLGDLADKYGPVFTFRLGLPLVLVVSSYEAVKDCFSTNDAIFSNRPAFLYGDYLGYNNAMLFLANYGPYWRKNRKLVIQEVLSASRLEKFKHVRFARIQASMKNLYTRIDGNSSTINLTDWLEELNFGLIVKMIAGKNYESGKGDEQVERFKKAFKDFMILSMEFVLWDAFPIPLFKWVDFQGHVKAMKRTFKDIDSVFQNWLEEHINKREKMEVNAEGNEQDFIDVVLSKMSNEYLGEGYSRDTVIEATVFSLVLDAADTVALHINWGMALLINNQKALTKAQEEIDTKVCKDRWVEESDIKDLVYLQAIVKEVLRLYPPGPLLVPHENVEDCVVSGYHIPKGTRLFANVMKLQRDPKLWSDPDTFDPERFIATDIDFRGQYYKYIPFGPGRRSCPGMTYALQVEHLTMAHLIQGFNYRTPNDEPLDMKEGAGITIRKVNPVELIIAPRLAPELY
B2: Control (CYP71D20): a p450 catalyzing the hydroxylation of 5-epi-aristolochene and 1-deoxycapsidiol in Nicotiana tabacum, used as control (protein, UniProt Q94FM7 1-504, looked up)
5-epiaristolochene …: MQFFSLVSIFLFLSFLFLLRKWKNSNSQSKKLPPGPWKIPILGSMLHMIGGEPHHVLRDLAKKYGPLMHLQLGEISAVVVTSRDMAKEVLKTHDVVFASRPKIVAMDIICYNQSDIAFSPYGDHWRQMRKICVMELLNAKNVRSFSSIRRDEVVRLIDSIRSDSSSGELVNFTQRIIWFASSMTCRSAFGQVLKGQDIFAKKIREVIGLAEGFDVVDIFPTYKFLHVLSGMKRKLLNAHLKVDAIVEDVINEHKKNLAAGKSNGALGGEDLIDVLLRLMNDTSLQFPITNDNIKAVIVDMFAAGTETSSTTTVWAMAEMMKNPSVFTKAQAEVREAFRDKVSFDENDVEELKYLKLVIKETLRLHPPSPLLVPRECREDTDINGYTIPAKTKVMVNVWALGRDPKYWDDAESFKPERFEQCSVDFFGNNFEFLPFGGGRRICPGMSFGLANLYLPLAQLLYHFDWKLPTGIMPRDLDLTELSGITIARKGGLYLNATPYQPSRE

Key:
[1] = molecular target: T1, tobacco nicotine demethylase (D121-AA8) (Nicotiana tabacum, UniProt Q38Q87); experiment: Nicotine demethylase activity assay with yeast microsomal preparations; conditions: for nornicotine produced from the demethylation of nicotine (HPLC and LSC): microsomal samples from yeast cells expressing the p450
T1 sequence (Q38Q87 with tags, fused parts or gaps): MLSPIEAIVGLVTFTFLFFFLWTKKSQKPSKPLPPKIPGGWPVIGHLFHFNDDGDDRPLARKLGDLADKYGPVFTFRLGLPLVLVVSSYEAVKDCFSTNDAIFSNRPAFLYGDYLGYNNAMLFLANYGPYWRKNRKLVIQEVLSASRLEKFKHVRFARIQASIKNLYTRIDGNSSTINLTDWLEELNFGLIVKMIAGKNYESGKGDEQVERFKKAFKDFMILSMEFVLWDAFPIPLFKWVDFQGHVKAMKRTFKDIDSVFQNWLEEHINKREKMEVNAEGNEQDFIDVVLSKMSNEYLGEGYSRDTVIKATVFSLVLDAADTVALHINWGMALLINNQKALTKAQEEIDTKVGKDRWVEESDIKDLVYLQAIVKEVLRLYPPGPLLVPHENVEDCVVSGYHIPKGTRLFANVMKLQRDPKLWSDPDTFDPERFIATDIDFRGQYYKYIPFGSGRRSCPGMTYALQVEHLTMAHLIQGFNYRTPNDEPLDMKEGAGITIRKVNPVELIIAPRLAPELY
Description: After induction by galactose for 20 hours, yeast cells were collected by centrifugation and washed twice with TES-M buffer (50 mM Tris-HCl, pH 7.5, 1 mM EDTA, 0.6 M sorbitol, 10 mM 2-mercaptoethanol). The pellet was resuspended in extraction buffer (50 mM Tris-HCl, pH 7.5, 1 mM EDTA, 0.6 M sorbitol, 2 mM 2-mercaptoethanol, 1% bovine serum album, Protease Inhibitor Cocktail (Roche) at 1 tablet/50 ml). Cells were then broken with glass beads (0.5 mm in diameter, Sigma) and the cell extract was centrifuged for 20 min at 20,000×g to remove cellular debris. The supernatant was subjected to ultracentrifugation at 100,000×g for 60 min and the resultant pellet contained the microsomal fraction. The microsomal fraction was suspended in TEG-M buffer (50 mM Tris-HCl, pH 7.5, 1 mM EDTA, 20% glycerol and 1.5 mM 2-mercaptoethanol) at protein concentration of 1 mg/mL. Microsomal preparations were stored in a liquid nitrogen freezer until use.
Nicotine demethylase activity assays with yeast microsomal preparations were performed. […] Chlorpromazine (CPZ) and oxidized cytochrome c (cyt. C), both P450 inhibitors, were purchased from Sigma. […] NADPH was omitted for control incubation. The routine enzyme assay included microsomal proteins (around 1 mglrnl), 6 mM NADPH, and 55 μM ^14C labeled nicotine. […] C, when used, was 1 mM and 100 μM, respectively. The reaction was carried at 25° C. for 1 hour and was stopped with the addition of 300 μM methanol to each 25 μl reaction mixture. After centrifugation, 20 μl of the methanol extract was separated with a reverse-phase High Performance Liquid Chromatography (HPLC) system (Agilent) using an Inertsil ODS-3 3μ (150×4.6 mm) chromatography column from Varian. The isocratic mobile phase was the mixture of methanol and 50 mM potassium phosphate buffer, pH 6.25, with ratio of 60:40 (v/v) and the flow rate was 1 ml/min. The nornicotine peak, as determined by comparison with authentic non-labeled nornicotine, was collected and subjected to 2900 tri-carb Liquid ScintlDation Counter (LSC) (Perkin Elmer) for quantification. The activity of nicotine demethylase is calculated based on the production of ^14C labeled nornicotine over 1 hour incubation.

[2] = molecular target: T2, nicotine demethylase activity in the transformed yeast cells (Nicotiana tabacum, UniProt Q38Q87); experiment: In vivo enzyme assay: feeding transformed yeast culture with 14C labeled nicotine; assay type: cell-based; conditions: WAT11 yeast, galactose-induced culture, 55 μM 14C nicotine, 6 hours
T2 construct: expressed in transfected cells; host or cells: Saccharomyces cerevisiae WAT11 transformed with pYeDP60-p450 cDNA plasmid, galactose-induced culture
T2 sequence (Q38Q87 with tags, fused parts or gaps): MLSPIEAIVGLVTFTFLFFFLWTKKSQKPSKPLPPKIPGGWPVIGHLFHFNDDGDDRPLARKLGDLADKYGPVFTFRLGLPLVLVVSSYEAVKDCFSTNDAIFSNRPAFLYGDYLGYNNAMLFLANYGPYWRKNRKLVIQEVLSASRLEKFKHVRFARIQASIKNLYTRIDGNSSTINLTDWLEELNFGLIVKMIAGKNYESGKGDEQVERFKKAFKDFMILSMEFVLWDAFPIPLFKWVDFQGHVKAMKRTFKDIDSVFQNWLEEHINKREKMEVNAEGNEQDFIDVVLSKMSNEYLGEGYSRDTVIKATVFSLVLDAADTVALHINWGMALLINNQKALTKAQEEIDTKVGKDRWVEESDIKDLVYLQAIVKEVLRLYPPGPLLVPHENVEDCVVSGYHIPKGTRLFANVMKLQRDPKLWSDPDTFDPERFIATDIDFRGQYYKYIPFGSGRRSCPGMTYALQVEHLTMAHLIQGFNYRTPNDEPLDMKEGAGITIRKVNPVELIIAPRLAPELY
Description: Single yeast colonies were used to inoculate 30 mL SGI media (5 g/L bactocasamino acids, 6.7 g/L yeast nitrogen base without amino acids, 20 g/L glucose, 40 mg/L DL-tryptophan) and grown at 30° C. for about 24 hours. An aliquot of this culture was diluted 1:50 into 1000 mL of YPGE media (10 g/L yeast extract, 20 g/L bacto peptone, 5 g/L glucose, 30 ml/L ethanol) and grown until glucose was completely consumed as indicated by the colorimetric change of a Diastix urinalysis reagent strip (Bayer, Elkhart, Ind.). Induction of cloned P450 was initiated by adding DL-galactose to a final concentration of 2%. The cultures were grown for an additional 20 hours before used for in vivo activity assay or for microsome preparation.
WAT11 yeast cells expressing pYeDP60-CYP71D20 (a p450 catalyzing the hydroxylation of 5-epi-aristolochene and 1-deoxycapsidiol in Nicotiana tabacum) were used as control for the p450 expression and enzyme activity assays.
The nicotine demethylase activity in the transformed yeast cells were assayed by feeding of yeast culture with DL-Nicotine (Pyrrolidine-2-^14C). ^14C labeled nicotine (54 mCi/mmol) was added to 75 μl of the galactose-induced culture for a final concentration of 55 μM. […] After spinning, 20 μl of the methanol extract was separated with an rp-HPLC and the nornicotine fraction was quantitated by LSC.

| Molecule | effect on nicotine demethylase activity of D121-AA8 microsomes ([1]; Chlorpromazine 1 mM, incubated for 1 hour) | nornicotine produced from the demethylation of nicotine (HPLC and LSC) [1] | conversion of nicotine to nornicotine in yeast culture [2] | Demethylase activity, Microsomes + 100 μM cytochrome C ([1]; yeast microsomes with 100 μM oxidized cytochrome c, n = 3) | Demethylase activity, Microsomes + 1 mM chlorpromazine ([1]; yeast microsomes with 1 mM chlorpromazine, n = 3) | Demethylase activity, Microsomes ([1]; yeast microsomes, 6 mM NADPH, 55 μM 14C labeled nicotine, 25° C., 1 hour, n = 12) |
| --- | --- | --- | --- | --- | --- | --- |
| CN(C)CCCN1c2ccccc2Sc2ccc(Cl)cc21 [Chlorpromazine, reference compound] | decreased significantly | – | – | – | – | – |
| B1 | – | did not show any nornicotine conversion formation | – | – | – | – |
| B2 | – | did not show any nornicotine conversion formation | did not convert nicotine to nornicotine | Not Detected | Not Detected | Not Detected |
